Results reported in patent publication US20240285788A1, “CONJUGATE OF ANTIBODY AND FUNCTIONAL SUBSTANCE OR SALT THEREOF, AND ANTIBODY DERIVATIVE AND COMPOUND USED IN PRODUCTION OF THE SAME OR SALTS THEREOF” (Ajinomoto Co., Inc., priority 2021, published 2024).

Assays:
[1] = Evaluation of degree of hydrophobicity by hydrophobic column chromatography (HIC-HPLC); type: physicochemical; conditions: for Retention time: ADC mimics from thiol group-introduced trastuzumab, DAR 2
Description: According to a previous report (Anal. Chem., 2019, 91, 20, 12724-12732, which is incorporated herein by reference in tis entirety), HIC-HPLC analysis was performed. Measurement was performed using the following conditions. Degrees of hydrophobicity of an ADC can be evaluated by retention time of the ADC in HIC chromatogram.
Measurement system: Chromaster (registered trademark) (manufactured by Hitachi, Ltd.)
Column: Tosoh Biobuthyl NPR 2.5 μm 4.6×35 mm column manufactured by Tosoh Bio-Sciences Inc.
Gradient: linear gradient of eluent A/B
Eluent B: 25 mM Na2HPO4/NaH2PO4 (pH 6.0, 25 v/v % isopropanol added)
For DAR analysis of the ADC mimics synthesized in Example 7 and Comparative Example 2, HIC-HPLC analysis was performed according to a previous report (Anal. Chem., 2019, 91, 20, 12724-12732, which is incorporated herein by reference in its entirety). Measurement was performed using the following conditions.
HIC-HPLC analysis was performed using the condition of Example 8. Measurement was performed using the following conditions. A degree of hydrophobicity of ADC mimic can be evaluated by retention time of ADC in HIC chromatogram.
HIC-HPLC analysis was performed using the condition of Example 8.
Subsequently, hydrophobicity of an ADC was evaluated using HIC-HPLC. Measurement was performed according to Example 9. A degree of hydrophobicity of an ADC can be evaluated by retention time of ADC in HIC chromatogram.
According to a previous report (Anal. Chem., 2019, 91, 20, 12724-12732, which is incorporated herein by reference in its entirety), HIC-HPLC analysis was performed. Measurement was performed using the following conditions. Degrees of hydrophobicity of an ADC can be evaluated by retention time of the ADC in HIC chromatogram.

[2] = Evaluation of aggregation ratio by size exclusion chromatography (SEC-HPLC); type: physicochemical
Description: SEC-HPLC analysis was performed according to a previous report (Chemistry Select, 2020, 5, 8435-8439). Measurement was performed using the following conditions.
Measurement system: 1260 HPLC system (manufactured by Agilent)
Column: AdvanceBio SEC 300 Å, 2.7 μm, 4.6 mm×150 mm, manufactured by Agilent Technologies
Eluent: 100 mM sodium dihydrogen phosphate/sodium hydrogen phosphate, aqueous solution of 250 mM sodium chloride (pH 6.8), 10% v/v isopropanol
SEC-HPLC analysis was performed according to Example 10.

| Compound | Retention time ([1]; Table 2, HIC-HPLC) | Retention time ([1]; Table 20) | degree of hydrophilicity judged from retention time in HIC chromatogram (in words) [1] | tendency of aggregation ratio by SEC-HPLC (in words) [2] |
| --- | --- | --- | --- | --- |
| CCCCCNC(=O)CCSC1CC(=O)N(CCCCCNC(=O)C(OC(=O)N(C)CC(=O)NCc2ccc3ccc4cccc5ccc2c3c45)c2ccc(NC(=O)[C@H](CCCNC(N)=O)NC(=O)[C@@H](NC(=O)OCc3ccccc3)C(C)C)cc2)C1=O (stereo partly drawn) [ADC mimic 5] | 13.6 min | 13.6 min | – | – |
| CSC1CC(=O)N(CCCCCNC(=O)C(OC(=O)N(C)CC(=O)NCc2ccc3ccc4cccc5ccc2c3c45)c2ccc(NC(=O)[C@H](CCCNC(N)=O)NC(=O)[C@@H](NC(=O)[C@H](CCC(=O)O)NC(C)=O)C(C)C)cc2)C1=O (stereo partly drawn) [ADC mimic 12] | – | – | more hydrophilic | – |
| CSC1CC(=O)N(CCCCCNC(=O)C(OC(=O)N(C)CC(=O)NCc2ccc3ccc4cccc5ccc2c3c45)c2ccc(NC(=O)[C@H](CCCNC(N)=O)NC(=O)[C@@H](NC(=O)[C@H](CCC(=O)O)NC(=O)[C@H](CCC(=O)O)NC(C)=O)C(C)C)cc2)C1=O (stereo partly drawn) [ADC mimic 13] | – | – | more hydrophilic | low aggregation ratios |
| CSC1CC(=O)N(CCCCCNC(=O)C(OC(=O)N(C)CC(=O)NCc2ccc3ccc4cccc5ccc2c3c45)c2ccc(NC(=O)[C@H](C)NC(=O)[C@@H](NC(=O)[C@H](CCC(=O)O)NC(C)=O)C(C)C)cc2)C1=O (stereo partly drawn) [ADC mimic 14] | – | – | more hydrophilic | – |
